According to article PMC6696043, “Aptamers in Education: Undergraduates Make Aptamers and Acquire 21st Century Skills Along the Way”:

Assays:
[1] = molecular target: calf intestinal alkaline phosphatase (CIAP) (calf) (UniProt P19111); experiment: 32P-RNA binding assay; conditions: RNA 5 nM, triplicate; Selection buffer 20 mM HEPES pH 7.5, 150 mM NaCl, 5 mM MgCl2, room temperature; binding assay conditions not separately stated (refers to cited protocol)
[2] = molecular target: T1, calf intestinal alkaline phosphatase (CIAP) (calf, UniProt P19111 20-506); experiment: 32P-RNA binding assay; Selection buffer 20 mM HEPES pH 7.5, 150 mM NaCl, 5 mM MgCl2, room temperature; binding assay conditions not separately stated (refers to cited protocol); conditions: protein: commercial; tags: biotinylated (Pierce 29339, 69 kDa); chain copies: 2; label: 32P; stem-loop, GGG/CCC closing stem
[3] = molecular target: human intestinal alkaline phosphatase (human, UniProt P09923 20-503); experiment: 32P-RNA binding assay; up to 250 nM protein, single point; Selection buffer 20 mM HEPES pH 7.5, 150 mM NaCl, 5 mM MgCl2, room temperature; binding assay conditions not separately stated (refers to cited protocol); conditions: protein: recombinant; chain copies: 2; label: 32P; stem-loop, GGG/CCC closing stem
[4] = molecular target: T2, human tissue-nonspecific alkaline phosphatase (human, UniProt P05186 18-501); experiment: as above; conditions: protein: recombinant; chain copies: 2; label: 32P; stem-loop, GGG/CCC closing stem
T2 sequence: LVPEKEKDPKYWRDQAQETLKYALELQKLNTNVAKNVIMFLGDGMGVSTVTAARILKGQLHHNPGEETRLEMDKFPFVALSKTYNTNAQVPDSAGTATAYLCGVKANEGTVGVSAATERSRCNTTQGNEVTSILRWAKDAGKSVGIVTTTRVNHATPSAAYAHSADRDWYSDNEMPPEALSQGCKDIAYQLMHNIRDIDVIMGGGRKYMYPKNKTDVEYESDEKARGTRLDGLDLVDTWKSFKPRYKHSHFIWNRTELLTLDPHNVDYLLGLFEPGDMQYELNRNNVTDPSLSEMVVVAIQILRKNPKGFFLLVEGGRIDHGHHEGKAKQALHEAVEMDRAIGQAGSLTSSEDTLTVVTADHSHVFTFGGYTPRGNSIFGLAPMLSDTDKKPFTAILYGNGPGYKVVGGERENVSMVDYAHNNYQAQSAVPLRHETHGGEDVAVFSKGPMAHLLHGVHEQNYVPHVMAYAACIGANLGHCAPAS

[5] = molecular target: T1, calf intestinal alkaline phosphatase …; experiment: 32P-RNA binding assay; RNA 5 nM, triplicate; Selection buffer 20 mM HEPES pH 7.5, 150 mM NaCl, 5 mM MgCl2, room temperature; binding assay conditions not separately stated (refers to cited protocol); conditions: protein: commercial, tags: biotinylated (Pierce 29339, 69 kDa), chain copies: 2, label: 32P
[6] = molecular target: T1, calf intestinal alkaline phosphatase …; experiment: 32P-RNA bead binding assay; not above no-protein beads; prefers naked beads; Selection buffer 20 mM HEPES pH 7.5, 150 mM NaCl, 5 mM MgCl2, room temperature; binding assay conditions not separately stated (refers to cited protocol); conditions: protein: commercial; tags: biotinylated (Pierce 29339, 69 kDa); chain copies: 2; label: 32P
[7] = molecular target: T1, calf intestinal alkaline phosphatase …; experiment: 32P-RNA bead binding assay; not above no-protein beads; Selection buffer 20 mM HEPES pH 7.5, 150 mM NaCl, 5 mM MgCl2, room temperature; binding assay conditions not separately stated (refers to cited protocol); conditions: protein: commercial; tags: biotinylated (Pierce 29339, 69 kDa); chain copies: 2; label: 32P

T1 sequence (P19111 20-506): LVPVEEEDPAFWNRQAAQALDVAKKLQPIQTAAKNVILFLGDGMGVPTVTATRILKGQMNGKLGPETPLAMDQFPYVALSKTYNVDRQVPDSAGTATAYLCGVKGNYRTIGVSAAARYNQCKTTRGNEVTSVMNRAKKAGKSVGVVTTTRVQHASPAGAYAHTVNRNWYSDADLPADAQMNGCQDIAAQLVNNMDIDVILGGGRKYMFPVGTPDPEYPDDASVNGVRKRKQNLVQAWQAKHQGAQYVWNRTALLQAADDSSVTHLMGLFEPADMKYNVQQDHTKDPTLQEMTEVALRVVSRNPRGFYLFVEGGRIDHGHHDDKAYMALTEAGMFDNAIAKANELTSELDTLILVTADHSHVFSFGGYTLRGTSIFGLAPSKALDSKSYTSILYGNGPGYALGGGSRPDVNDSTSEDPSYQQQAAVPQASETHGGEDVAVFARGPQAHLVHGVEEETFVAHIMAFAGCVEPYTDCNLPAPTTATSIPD
calf intestinal alkaline phosphatase (CIAP) (calf), sequence (P19111 20-506): as above
human intestinal alkaline phosphatase, sequence (P09923 20-503): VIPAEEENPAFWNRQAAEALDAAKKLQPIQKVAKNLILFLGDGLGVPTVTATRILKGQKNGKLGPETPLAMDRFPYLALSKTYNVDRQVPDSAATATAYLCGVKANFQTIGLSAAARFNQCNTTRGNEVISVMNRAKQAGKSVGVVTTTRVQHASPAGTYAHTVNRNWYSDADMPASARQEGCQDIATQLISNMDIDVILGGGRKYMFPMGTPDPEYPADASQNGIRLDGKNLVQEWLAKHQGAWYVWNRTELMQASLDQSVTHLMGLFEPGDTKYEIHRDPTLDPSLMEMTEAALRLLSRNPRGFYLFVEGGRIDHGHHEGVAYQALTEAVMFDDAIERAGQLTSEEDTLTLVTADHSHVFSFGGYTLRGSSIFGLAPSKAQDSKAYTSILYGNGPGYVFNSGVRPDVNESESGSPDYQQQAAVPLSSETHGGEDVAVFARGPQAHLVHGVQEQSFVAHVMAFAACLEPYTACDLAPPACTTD

For “GGGUUUACCUAGGUGUAGAUGCUUCWAUUGAUAUGUUAUAACUGAACUCAACAUAAGGAUAUGAUGUAUGAUCAAGUGACGUCUGAACUGCUUCGAA [aptamer clone 4-9]”, the Kd [1] was 9.4 nM.

B1: minimized aptamer variant 3.1 (structured_RNA)
RNA: GGGUAGAUGCUGUAUAUAGCGAACUCAACAUAAGGUAUAAUUACAAUUUCUACCC
For B1, the Kd [2] was 6.7 nM, the binding result [3] was “no binding” and the binding result [4] was “no binding”.

B2: aptamer clone 4-3 (structured_RNA)
RNA: GGGUUUACCUAGGUGUAGAUGCUGUAUAUAGCGAACUCAACAUAAGGUAUAAUUACAAUUUCUAUACUUCUUCAAGUGACGUCUGAACUGCUUCGAA
Work on B2 yielded a Kd ([5]; VDH motif in loop) of 5 nM.

B3: aptamer clone 3-6 (structured_RNA)
RNA: GGGUUUACCUAGGUGUAGAUGCUCUGCCCUUCAGAUUUAUCGAUGACCGUUGAACUCAACAUAAGACCUUCCAAAGUGACGUCUGAACUGCUUCGAA
B3 was tested, and the Kd ([5]; VDH motif in loop and stem) was 10.8 nM.

B4: clone c2-1 (structured_RNA)
RNA: GGGUUUACCUAGGUGUAGAUGCUGAUAGAUUUCCCCUGACUUAGGAGCUCAUUAGAUUUUUAUUGUGUGGGGCAAGUGACGUCUGAACUGCUUCGAA
B4: no binding [6].

B5: clone c2-4 (structured_RNA)
RNA: GGGUUUACCUAGGUGUAGAUGCUUCUUCACUCCUUAUGAACACGUAGCGCUCAAUCAUCUCUAAUUAAUUCUCAAGUGACGUCUGAACUGCUUCGAA
B5: no binding [7].
